Experimental data as given in patent US20130156692A1 (INDI MOLECULAR, published 2013).
Bridges are numbered along the chain shown (N, C = ends). Primed or numbered codes have the meaning given here. Where no end group is shown, it is not given here. [ ]: non-standard residue; d: D form. Tz4″ = 1,4-disubstituted 1,2,3-triazole linker between anchor and secondary ligand; Lys(N3) = [N-]=[N+]=NCCCC[C@H](N)C(=O)O

B1: Biligand 2 (X-…-Tz4-Ifrew) (designed binder)
peptide: VEPNCDIHVMWEWECFERL[Tz4″][dL][dF][dR][dE][dW]
modifications: disulfide 5-15; numbers in words are those of the source; also: N-terminal group is biotin-PEG3 or acetyl, not fixed
B2: anchor ligand X-VEPNCDIHVMWEWECFERL-Az4 (peptide)
peptide: VEPNCDIHVMWEWECFERL[Lys(N3)]
modifications: disulfide 5-15; also: N-terminal X is biotin-PEG3 or acetyl, not settled
notes: Phage display-derived peptide; also called Biotin-PEG-anchor ligand-Az4

Key:
[1] = molecular target: T1, human VEGF165A (#ab56620; Abcam) (human, UniProt P15692-4 27-191, biotinylated (EZ-Link Sulfo-NHS-LC-Biotinylation kit) in the competitive ELISAs of Examples 8, 9 and 16; unlabelled in the direct ELISA and the pull-down); assay: competitive ELISA, inhibition of biotinylated VEGF165 binding to VEGFR2-Fc; competition ELISA: blocking of biotinylated VEGF165 binding to VEGFR2-Fc; Biligand 2 tested up to 50 µM
T1 construct: Isoform VEGF165 of VEGF-A; also called rhVEGF165; biotinylated VEGF165

[2] = molecular target: T1, human VEGF165A (#ab56620; Abcam); assay: direct ELISA: VEGF165A immobilized on NUNC MaxiSorp plate, biotinylated PCC or bevacizumab (mAb or Fab) titrated, normalized to binding at saturation
[3] = molecular target: T1, human VEGF165A (#ab56620; Abcam); assay: direct ELISA: VEGF165 coated on the plate, biotinylated binder titrated, streptavidin poly-HRP, fluorescence normalised to saturation
[4] = molecular target: T1, human VEGF165A (#ab56620; Abcam); assay: direct ELISA, VEGF165 coated, biotinylated capture agent
[5] = molecular target: T1, human VEGF165A (#ab56620; Abcam); assay: direct ELISA: VEGF165A immobilized on NUNC MaxiSorp plate, biotinylated peptide titrated, normalized to binding at saturation
[6] = molecular target: T1, human VEGF165A (#ab56620; Abcam); assay: competitive ELISA, inhibition of biotinylated VEGF165 binding to VEGFR2-Fc; competition ELISA: blocking of biotinylated VEGF165 binding to VEGFR2-Fc; anchor tested up to 50 µM

T1 sequence (P15692 other isoform, or with tags, fused parts or gaps limits assumed): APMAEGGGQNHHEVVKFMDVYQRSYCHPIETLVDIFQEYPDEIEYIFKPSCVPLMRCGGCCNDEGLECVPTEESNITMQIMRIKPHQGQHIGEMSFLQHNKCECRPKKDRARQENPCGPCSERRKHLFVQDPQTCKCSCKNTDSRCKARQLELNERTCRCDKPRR

| Binder | IC50 [1] | EC50 (read off the curve) [2] | EC50 (read off the curve) [3] | fold improvement in affinity relative to the anchor ligand [4] | EC50 (read off the curve) [5] | IC50 [6] |
| --- | --- | --- | --- | --- | --- | --- |
| B1 | > 50000 nM | 40 nM | 50 nM | 5 fold | – | – |
| B2 | – | ~100 nM | ~100 nM | – | ~300 nM | > 50000 nM |
